# Measurements taken from paper PMC8545111, “Molecular Basis of the Versatile Regulatory Mechanism of HtrA-Type Protease AlgW from Pseudomonas aeruginosa” (mBio, 2021).
# Substitutions are numbered along the chain they refer to. Several values for one entry are separate records, joined by “and”; a condition that tells them apart may be missing. Identical values can stand only once. Non-standard residues stand in square brackets, D forms with d. Residues, ends and D or L forms follow the SMILES beside them. *: point of attachment. pNA = O=[N+]([O-])c1ccc(N*)cc1; 2Abz = Nc1ccccc1C(=O)O
# B1: AlgW-R374A (protein)
# chain: VGLPRQEVHVEQAPLLSRLQEGPVSYANAVSRAAPAVANLYTTKMVSKPSHPLFDDPMFRRFFGDNLPQQKRMESSLGSAVIMSAEGYLLTNNHVTAGADQIIVALRDGRETIAQLVGSDPETDLAVLKIDLKNLPAMTLGRSDGIRTGDVCLAIGNPFGVGQTVTMGIISATGRNQLGLNTYEDFIQTDAAINPGNSGGALVDAAGNLIGINTAIFSKSGGSQGIGFAIPTKLALEVMQSIIEHGQVIRGWLGVEVKALTPELAESLGLGETAGIVVAGVYRDGPAARGGLLPGDVILTIDKQEASDGRRSMNQVARTRPGQKISIVVLRNGQKVNLTAEVGLAPPPAPAPQQKQDGGE
# modifications: left off: His6, C-terminal, state not stated
# B2: AlgW-D149A (protein)
# chain: B1 chain with D120A, A345R
# modifications: left off: His6, C-terminal, state not stated
# B3: AlgW-E151A (protein)
# chain: B1 chain with E122A, A345R
# modifications: left off: His6, C-terminal, state not stated
# B4: AlgW-Y212A (protein)
# chain: B1 chain with Y183A, A345R
# modifications: left off: His6, C-terminal, state not stated
# B5: AlgW-E266A (protein)
# chain: B1 chain with E237A, A345R
# modifications: left off: His6, C-terminal, state not stated
# B6: AlgW-R279A (protein)
# chain: B1 chain with R250A, A345R
# modifications: left off: His6, C-terminal, state not stated
# B7: AlgW-R347A (protein)
# chain: B1 chain with R318A, A345R
# modifications: left off: His6, C-terminal, state not stated
# B8: AlgW-W281A (protein)
# chain: B1 chain with W252A, A345R
# modifications: left off: His6, C-terminal, state not stated
# B9: AlgW-L282A (protein)
# chain: B1 chain with L253A, A345R
# modifications: left off: His6, C-terminal, state not stated
# B10: AlgW-V284A (protein)
# chain: B1 chain with V255A, A345R
# modifications: left off: His6, C-terminal, state not stated
# B11: AlgW-E285A (protein)
# chain: B1 chain with E256A, A345R
# modifications: left off: His6, C-terminal, state not stated
# B12: AlgW-K287A (protein)
# chain: B1 chain with K258A, A345R
# modifications: left off: His6, C-terminal, state not stated
# Tests used:
# [1] = tested on: CC(C)C[C@H](NC(=O)[C@@H](NC(=O)c1ccccc1N)C(C)C)C(=O)N[C@@H](C)C(=O)NCC(=O)Nc1ccc([N+](=O)[O-])cc1; assay: Fluorogenic Abz-VLAG-pNA cleavage by peptide-activated AlgW and LA loop mutants (200 nM), 25 mM Tris pH 7.5, 150 mM NaCl, 37°C, Michaelis-Menten fit.; assay type: biochemical
# Protocol: Based on the identified MucA and MucB cleavage sites for AlgW ([6], [13]), self-quenching fluorogenic tetrapeptides derived from 134-VLAG-137 of MucA (Abz-VLAG-pNA), 211-TVAW-214 of MucB (Abz-TVAW-pNA), and alanine tetrapeptide (Abz-AAAA-pNA) were synthesized and subjected to real-time measurement of AlgW proteolytic activity in the presence of excessive peptides (10 mM) (Fig. 2A). Compared with the negative-control group (using Abz-AAAA-pNA substrate), both Abz-VLAG-pNA and Abz-TVAW-pNA could be efficiently cleaved by AlgW. […] Considering that MucA is the major target of AlgW, substrate Abz-VLAG-pNA and decapeptide activator SVRDELRWVF were selected to establish a real-time AlgW assay to investigate the kinetic mechanism.
# (§1) For the enzyme mechanism of AlgW (30–389) and mutants, two internally quenched fluorescent peptide substrates incorporating the peptidase cleavage site of MucA/MucB, Abz-VLAG-pNA and Abz-TVAW-pNA, were designed and synthesized (GL Biochem Shanghai Ltd., China). In the intact peptide, the fluorescence of the anthraniloyl group is quenched by the P-nitroaniline (Abz is a fluorogenic group, and pNA is a quencher of fluorescence). This quenched fluorescence is liberated upon cleavage of peptide by 200 nM AlgW and mutants (200/3 nM for trimer), resulting in increased fluorescence that can then be monitored fluorometrically. Prior to the assay, all enzyme preparations were incubated with 10 mM agonist peptides (WVF or SVRDELRWVF) for 30 min at room temperature. All assays were placed in a buffer containing 25 mM Tris (pH 7.5) and 150 mM NaCl at 37°C for 1 h, and the final assay volume was 100 μl. The fluorescent degradation products were monitored at 60-s intervals at fluorescence wavelength—λex = 310 nm, λem = 420 nm ([41]). All data points were representative of three independent determinations and were simulated with solid lines with the formula Y = Vmax · X^h/(Km ^h + X^h) or Y = Vmax · X^h/(Khalf^h + X^h) or the Michaelis-Menten formula (Y = Vmax · X/[Km + X]). Substrate versus velocity was used to determine Km and Vmax, and agonists versus velocity was used to determine the half-maximal activation concentration and maximum activation rate of agonists. The fitting and calculation of data were carried out using Prism 7 (GraphPad, CA, USA).
# [2] = tested on: AlgW; assay: Quenched fluorescent substrate cleavage by peptide/lipid-activated AlgW (substrate versus velocity); assay type: biochemical, Pseudomonas aeruginosa; details: three independent determinations; for Km / Vmax: substrate gradient 3.125-300 μM, Hill fit; for Km / Hill constants: Tris pH 7.5, 37°C; for Hill constants: substrate gradient; for Vmax: 25 mM Tris pH 7.5, 150 mM NaCl, 37°C, 1 h, fluorescence ex 310/em 420 nm
# Protocol: FIG 2 Determination of enzyme apparent kinetic parameters of dual-signal-activated AlgW. (A) Activity assay of tripeptide or decapeptide-activated AlgW using the quenched fluorescent substrates Abz-VLAG-pNA, Abz-TVAW-pNA, and Abz-AAAA-pNA. All assays were placed in a buffer containing 25 mM Tris (pH 7.5) and 150 mM NaCl at 37°C for 1 h by adding 100 μM substrate, 200 nM AlgW, and 10 mM agonist peptides (tripeptide WVF or decapeptide SVRDELRWVF). (B) The apparent Michaelis-Menten parameters of AlgW cleavage quenched fluorescent substrates Abz-VLAG-pNA (100 μM) under the condition of peptide or lipid activation. (C) The activity assay of peptide or DDM activated AlgW using the saturated quenched fluorescent substrates Abz-VLAG-pNA. Under the gradient of peptide or DDM concentration,100 μM substrate and 200 nM AlgW were coincubated with or without 400 μM DDM or 10 mM agonist peptides in a buffer containing 25 mM Tris (pH 7.5) and 150 mM NaCl at 37°C for 1 h. The final assay volume of all experiments was 100 μl, and the appearance of fluorescent products was monitored at 60-s intervals at fluorescence wavelengths of λex = 310 nm and λem = 420 nm. All data points were representative of three independent determinations and were simulated with solid lines through the formula of Y = Vmax · X^h/(Km^h + X^h) or Y = Vmax · X^h/(Khalf^h + X^h). The Kcat for the AlgW trimer was calculated by Kcat = Vmax/(Etotal), (Etotal) = 200/3 nM trimers. Error bars represent the standard deviation.
# as §1
# All experiments were performed in independent biological triplicate, and the results of replicates were consistent. The fitting and calculation of data were carried out with Prism 7 (GraphPad, CA, USA). All the enzyme kinetic data points were representative of three independent determinations and were simulated with solid lines through the formula Y = Vmax · X^h/(Km^h + X^h) or Y = Vmax · X^h/(Khalf^h + X^h) or the Michaelis-Menten formula (Y = Vmax · X/[Km + X]). Substrate versus velocity was used to determine Km and Vmax, and agonists versus velocity was used to determine the half-maximal activation concentration and maximum activation rate of agonists; error bars represent the standard deviation.
# [3] = tested on: AlgW and mutants; assay: Apparent activation parameters of AlgW and mutants (peptide agonist gradient); assay type: biochemical, Pseudomonas aeruginosa; details: peptide activator (decapeptide) gradient, substrate Abz-VLAG-pNA, Michaelis-Menten fit, means of three independent determinations; for Maximal cleavage activity: Tris pH 7.5, 150 mM NaCl, 37°C; for EC50: read-out: Half-maximal activation concn
# Excerpt: as §1
# [4] = decapeptide SVRDELRWVF (10 mM) activated AlgW 200 nM
# [5] = decapeptide SVRDELRWVF (10 mM, 30 min RT pre-incubation) activated AlgW 200 nM
# [6] = tripeptide WVF (10 mM) activated AlgW 200 nM
# [7] = tripeptide WVF (10 mM, 30 min RT pre-incubation) activated AlgW 200 nM
molecule,measurement,setting,value
AlgW-K73A (Pseudomonas aeruginosa PAO1; K73A),Km,[1],247.9 ± 93.04 µM
same,Vmax,[1],188 µM/min
same,kcat/Km,[1],189000 ± 39700 M⁻¹ s⁻¹
AlgW-TTK (71–73)A (Pseudomonas aeruginosa PAO1; K73A/T71A/T72A),Km,[1],125.1 ± 19.87 µM
same,Vmax,[1],1430 µM/min
same,kcat/Km,[1],2.86e+06 ± 199000 M⁻¹ s⁻¹
AlgW-T72A (Pseudomonas aeruginosa PAO1; T72A),Km,[1],86.69 ± 15.8 µM
same,Vmax,[1],766 µM/min
same,kcat/Km,[1],2.21e+06 ± 156000 M⁻¹ s⁻¹
AlgW-T71A (Pseudomonas aeruginosa PAO1; T71A),Km,[1],48.29 ± 6.19 µM
same,Vmax,[1],154 µM/min
same,kcat/Km,[1],799000 ± 33200 M⁻¹ s⁻¹
CC(C)C[C@H](NC(=O)[C@@H](NC(=O)c1ccccc1N)C(C)C)C(=O)N[C@@H](C)C(=O)NCC(=O)Nc1ccc([N+](=O)[O-])cc1 [Abz-VLAG-pNA] (H-[2Abz]VLAG-pNA),Km,[2]; [4],50.1 ± 9.65 µM
same,Hill constants,[2]; [4],~1 and 0.95 ± 0.09
same,Vmax,[2]; [5],187 ± 12.83 µM/min
same,Km,[2]; [6],14.8 ± 2.16 µM
same,Hill constants,[2]; [6],1.51 ± 0.29
same,Vmax,[2]; [7],81.23 ± 4.02 µM/min
AlgW-ESS (103–105)A (Pseudomonas aeruginosa PAO1; E103A/S104A/S105A),Km,[1],123.1 ± 19.44 µM
same,Vmax,[1],873 µM/min
same,kcat/Km,[1],1.77e+06 ± 122000 M⁻¹ s⁻¹
CC(C)[C@H](NC(=O)[C@@H](NC(=O)c1ccccc1N)[C@@H](C)O)C(=O)N[C@@H](C)C(=O)N[C@@H](Cc1c[nH]c2ccccc12)C(=O)Nc1ccc([N+](=O)[O-])cc1 [Abz-TVAW-pNA] (H-[2Abz]TVAW-pNA),Km,[2]; [4],26.9 ± 1.48 µM
same,Hill constants,[2]; [4],1.26 and 1.26 ± 0.07
same,Vmax,[2]; [5],319.5 ± 6.42 µM/min
same,Km,[2]; [6],25.1 ± 1.93 µM
same,Hill constants,[2]; [6],1.25 and 1.25 ± 0.09
same,Vmax,[2]; [7],264.1 ± 7.31 µM/min
B1,Maximal cleavage activity,[3],5.45 ± 0.68 µM/min
B2,Maximal cleavage activity,[3],8.16 ± 0.85 µM/min
B3,EC50,[3],2990 ± 560 nM
same,Maximal cleavage activity,[3],34.93 ± 1.87 µM/min
B4,EC50,[3],2120 ± 620 nM
same,Maximal cleavage activity,[3],39.46 ± 6.17 µM/min
B5,EC50,[3],1080 ± 500 nM
same,Maximal cleavage activity,[3],60.51 ± 5.07 µM/min
B6,EC50,[3],2190 ± 990 nM
same,Maximal cleavage activity,[3],26.87 ± 3.21 µM/min
B7,EC50,[3],1850 ± 990 nM
same,Maximal cleavage activity,[3],63.5 ± 8.42 µM/min
B8,EC50,[3],1510 ± 720 nM
same,Maximal cleavage activity,[3],10.32 ± 1.51 µM/min
B9,EC50,[3],2760 ± 1190 nM
same,Maximal cleavage activity,[3],13.24 ± 1.59 µM/min
B10,EC50,[3],3560 ± 730 nM
same,Maximal cleavage activity,[3],63.13 ± 3.82 µM/min
B11,EC50,[3],3840 ± 1090 nM
same,Maximal cleavage activity,[3],57.5 ± 4.9 µM/min
B12,EC50,[3],6530 ± 1380 nM
same,Maximal cleavage activity,[3],49.42 ± 3.59 µM/min
